Measured values taken from the Human Domainome abundance scans (Beltran et al. 2025).
± gives the uncertainty stated by the source.

B1: Formin-binding protein 4, residues 200 to 261; numbered along this chain, Q8N3X1 (parent)
chain: SGWQYDTQCSLAGVGIEMGDWQEVWDENTGCYYYWNTQTNEVTWELPQYLATQVQGLQHYQP

Variants of: B1
Assay: abundance fitness (aPCA) (normalised: wild type 0, dead -1); higher = more abundant; growth selection in yeast, the domain comes from the species named
Conditions: Homo sapiens

Variant	abundance fitness
SGWQYDTQCSLAGVGIEMGDWQEVWDENTGCYYYWNTQTNEVTWELPQYLATQVQGLQHYCP	-0.203 ± 0.1
SGWQYDTQCSLAGVGIEMGDWQEVWDENTGCYYYWNTQTNEVTWELPQYLATQVQGLQHYGP	-0.018 ± 0.069
SGWQYDTQCSLAGVGIEMGDWQEVWDENTGCYYYWNTQTNEVTWELPQYLATQVQGLQHYAP	0.115 ± 0.064
SGWQYDTQCSLAGVGIEMGDWQEVWDENTGCYYYWNTQTNEVTWELPQYLATQVQGLQHYFP	-0.263 ± 0.1
SGWQYDTQCSLAGVGIEMGDWQEVWDENTGCYYYWNTQTNEVTWELPQYLATQVQGLQHYPP	-0.201 ± 0.1
SGWQYDTQCSLAGVGIEMGDWQEVWDENTGCYYYWNTQTNEVTWELPQYLATQVQGLQHYIP	-0.299 ± 0.12
SGWQYDTQCSLAGVGIEMGDWQEVWDENTGCYYYWNTQTNEVTWELPQYLATQVQGLQHYTP	0.263 ± 0.086
SGWQYDTQCSLAGVGIEMGDWQEVWDENTGCYYYWNTQTNEVTWELPQYLATQVQGLGHYQP	-0.086 ± 0.056
SGWQYDTQCSLAGVGIEMGDWQEVWDENTGCYYYWNTQTNEVTWELPQYLATQVQGLEHYQP	-0.059 ± 0.088
SGWQYDTQCSLAGVGIEMGDWQEVWDENTGCYYYWNTQTNEVTWELPQYLATQVQGLKHYQP	0.127 ± 0.093
SGWQYDTQCSLAGVGIEMGDWQEVWDENTGCYYYWNTQTNEVTWELPQYLATQVQGLTHYQP	-0.139 ± 0.093
SGWQYDTQCSLAGVGIEMGDWQEVWDENTGCYYYWNTQTNEVTWELPQYLATQVQGLYHYQP	-0.256 ± 0.16
SGWQYDTQCSLAGVGIEMGDWQEVWDENTGCYYYWNTQTNEVTWELPQYLATQVQGLAHYQP	-0.019 ± 0.075
SGWQYDTQCSLAGVGIEMGDWQEVWDENTGCYYYWNTQTNEVTWELPQYLATQVQGLLHYQP	-0.36 ± 0.072
SGWQYDTQCSLAGVGIEMGDWQEVWDENTGCYYYWNTQTNEVTWELPQYLATQVQGLFHYQP	-0.195 ± 0.091
SGWQYDTQCSLAGVGIEMGDWQEVWDENTGCYYYWNTQTNEVTWELPQYLATQVQGLWHYQP	-0.421 ± 0.091
SGWQYDTQCSLAGVGIEMGDWQEVWDENTGCYYYWNTQTNEVTWELPQYLATQVQGLMHYQP	-0.067 ± 0.086
SGWQYDTQCSLAGVGIEMGDWQEVWDENTGCYYYWNTQTNEVTWELPQYLATQVQGLPHYQP	-0.209 ± 0.11
SGWQYDTQCSLAGVGIEMGDWQEVWDENTGCYYYWNTQTNEVTWELPQYLATQVQGLNHYQP	0.083 ± 0.14
SGWQYDTQCSLAGVGIEMGDWQEVWDENTGCYYYWNTQTNEVTWELPQYLATQVQGLHHYQP	-0.005 ± 0.14
SGWQYDTQCSLAGVGIEMGDWQEVWDENTGCYYYWNTQTNEVTWELPQYLATQVQGLCHYQP	-0.293 ± 0.12
SGWQYDTQCSLAGVGIEMGDWQEVWDENTGCYYYWNTQTNEVTWELPQYLATQVQGLRHYQP	-0.242 ± 0.066

Variant	abundance fitness
SGWQYDTQCSLAGVGIEMGDWQEVWDENTGCYYYWNTQTNEVTWELPQYLATQVQGLQHYQA	0.124 ± 0.11
SGWQYDTQCSLAGVGIEMGDWQEVWDENTGCYYYWNTQTNEVTWELPQYLATQVQGLQHYQC	-0.006 ± 0.2
SGWQYDTQCSLAGVGIEMGDWQEVWDENTGCYYYWNTQTNEVTWELPQYLATQVQGLQHSQP	0.066 ± 0.062
SGWQYDTQCSLAGVGIEMGDWQEVWDENTGCYYYWNTQTNEVTWELPQYLATQVQGLQHNQP	0.01 ± 0.13
SGWQYDTQCSLAGVGIEMGDWQEVWDENTGCYYYWNTQTNEVTWELPQYLATQVQGLQHAQP	0.115 ± 0.068
SGWQYDTQCSLAGVGIEMGDWQEVWDENTGCYYYWNTQTNEVTWELPQYLATQVQGLQHHQP	0.092 ± 0.099
SGWQYDTQCSLAGVGIEMGDWQEVWDENTGCYYYWNTQTNEVTWELPQYLATQVQGLQHRQP	0.112 ± 0.054
SGWQYDTQCSLAGVGIEMGDWQEVWDENTGCYYYWNTQTNEVTWELPQYLATQVQGLQHPQP	0.113 ± 0.09
SGWQYDTQCSLAGVGIEMGDWQEVWDENTGCYYYWNTQTNEVTWELPQYLATQVQGLQHIQP	0.153 ± 0.092
SGWQYDTQCSLAGVGIEMGDWQEVWDENTGCYYYWNTQTNEVTWELPQYLATQVQGLQHVQP	0.099 ± 0.057
SGWQYDTQCSLAGVGIEMGDWQEVWDENTGCYYYWNTQTNEVTWELPQYLATQVQGLQHGQP	0.103 ± 0.058
SGWQYDTQCSLAGVGIEMGDWQEVWDENTGCYYYWNTQTNEVTWELPQYLATQVQGLQHMQP	0.177 ± 0.081
SGWQYDTQCSLAGVGIEMGDWQEVWDENTGCYYYWNTQTNEVTWELPQYLATQVQGLQHEQP	0.117 ± 0.085
SGWQYDTQCSLAGVGIEMGDWQEVWDENTGCYYYWNTQTNEVTWELPQYLATQVQGLQHLQP	0.086 ± 0.057
SGWQYDTQCSLAGVGIEMGDWQEVWDENTGCYYYWNTQTNEVTWELPQYLATQVQGLQHFQP	0.124 ± 0.087
SGWQYDTQCSLAGVGIEMGDWQEVWDENTGCYYYWNTQTNEVTWELPQYLATQVQGLQHCQP	0.035 ± 0.077
SGWQYDTQCSLAGVGIEMGDWQEVWDENTGCYYYWNTQTNEVTWELPQYLATQVQGLQHTQP	0.101 ± 0.081
SGWQYDTQCSLAGVGIEMGDWQEVWDENTGCYYYWNTQTNEVTWELPQYLATQVQGLQHQQP	0.123 ± 0.12
SGWQYDTQCSLAGVGIEMGDWQEVWDENTGCYYYWNTQTNEVTWELPQYLATQVQGLQHWQP	-0.068 ± 0.081
SGWQYDTQCSLAGVGIEMGDWQEVWDENTGCYYYWNTQTNEVTWELPQYLATQVQGLQHDQP	0.19 ± 0.1
SGWQYDTQCSLAGVGIEMGDWQEVWDENTGCYYYWNTQTNEVTWELPQYLATQVQGLQHKQP	0.038 ± 0.099
